The target in assay [1] is T1, human DLL3 (human, UniProt Q9NYJ7 27-492, limits assumed).
T1 construct: also called hDLL3; DLL3 protein
T1 sequence: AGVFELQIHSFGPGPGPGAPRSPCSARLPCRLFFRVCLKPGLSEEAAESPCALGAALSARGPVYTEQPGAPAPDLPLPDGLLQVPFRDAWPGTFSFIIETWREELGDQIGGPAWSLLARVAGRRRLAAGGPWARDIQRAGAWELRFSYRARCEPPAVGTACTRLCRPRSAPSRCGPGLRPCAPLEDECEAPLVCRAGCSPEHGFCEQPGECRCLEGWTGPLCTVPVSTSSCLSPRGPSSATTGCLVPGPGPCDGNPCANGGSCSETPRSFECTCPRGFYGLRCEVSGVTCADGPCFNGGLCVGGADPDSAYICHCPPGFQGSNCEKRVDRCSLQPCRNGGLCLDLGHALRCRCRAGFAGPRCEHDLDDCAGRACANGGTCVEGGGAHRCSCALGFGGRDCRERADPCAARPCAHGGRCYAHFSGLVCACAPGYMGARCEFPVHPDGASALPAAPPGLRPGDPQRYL
Nature of the assay: surface plasmon resonance. A general note: Surface plasmon resonance follows binding to a sensor surface in real time, without labels.

The target of a further assay is T2, human ASCL1 (human, UniProt P50553 1-236, limits assumed).
T2 construct: Transcription factor; also called hASCL1; immobilized human ASCL1
T2 sequence (looked up): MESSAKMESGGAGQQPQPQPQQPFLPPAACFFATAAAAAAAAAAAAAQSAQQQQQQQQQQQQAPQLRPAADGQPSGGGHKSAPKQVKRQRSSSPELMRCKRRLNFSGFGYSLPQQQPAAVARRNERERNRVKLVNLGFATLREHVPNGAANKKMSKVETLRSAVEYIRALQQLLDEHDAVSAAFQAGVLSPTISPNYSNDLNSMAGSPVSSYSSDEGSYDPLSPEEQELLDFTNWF
The assay can be described thus: screen on immobilized hASCL1 or h293-hASCL1 cells.

Assay [2] addresses T1, human DLL3. The assay can be described thus: screen on immobilized hDLL3 or h293-hDLL3 cells. In outline: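 Hybridoma supernatants from single cells of mice immunized with human DLL3 were screened after 10 days in culture. Binding by flow cytometry was scored positive when above the control. In the solid-phase ELISA, plates coated with DLL3-His at 0.5 μg/ml were probed with HRP anti-mouse IgG and TMB and read at OD 450.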

The target of assay [3] is T3, DLL3 extracellular domain (amino acids 27-466) (human, UniProt Q9NYJ7 27-466).
T3 construct: also called DLL3 ECD; wild type DLL3 ECD
T3 sequence: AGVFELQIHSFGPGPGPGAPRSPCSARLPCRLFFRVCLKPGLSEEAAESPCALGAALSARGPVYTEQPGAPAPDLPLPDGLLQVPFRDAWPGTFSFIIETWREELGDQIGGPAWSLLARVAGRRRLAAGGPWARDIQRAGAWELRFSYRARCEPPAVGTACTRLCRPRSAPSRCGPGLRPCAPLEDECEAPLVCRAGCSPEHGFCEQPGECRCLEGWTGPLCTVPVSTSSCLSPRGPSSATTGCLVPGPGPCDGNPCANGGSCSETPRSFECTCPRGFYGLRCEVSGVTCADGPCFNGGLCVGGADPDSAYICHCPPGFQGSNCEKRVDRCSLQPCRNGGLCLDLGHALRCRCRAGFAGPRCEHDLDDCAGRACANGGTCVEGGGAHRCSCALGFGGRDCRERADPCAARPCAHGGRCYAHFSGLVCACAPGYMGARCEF
The assay can be described thus: fine epitope mapping (phage display peptides or yeast display of DLL3 ECD mutants). As to the method:
Fine epitope mapping was further performed on selected antibodies using one of two methods. The first method employed the Ph.D.-12 phage display peptide library kit (New England Biolabs) which was used in accordance with the manufacturer's instructions. The antibody for epitope mapping was coated overnight at 50 μg/mL in 3 mL 0.1 M sodium bicarbonate solution, pH 8, onto a Nunc MaxiSorp tube (Nunc). The tube was blocked with 3% BSA solution in bicarbonate solution. Then, […] input phage in PBS+0.1% Tween-20 was allowed to bind, followed by ten consecutive washes with 0.1% Tween-20 to wash away non-binding phage. Remaining phage were eluted with 1 mL 0.2 M glycine for 10 minutes at room temperature with gentle agitation, followed by neutralization with 150 μL 1M Tris-HCl pH 9. Eluted phage were amplified and panned again with 10¹¹ input phage, using 0.5% Tween-20 during the wash steps to increase selection stringency. DNA from 24 plaques of the eluted phage from the second round was isolated using the Qiaprep M13 Spin kit (Qiagen) and sequenced. Binding of clonal phage was confirmed using an ELISA assay, where the mapped antibody or a control antibody was coated onto an ELISA plate, blocked, and exposed to each phage clone. Phage binding was detected using horseradish peroxidase conjugated anti-M13 antibody (GE Healthcare), and the 1-Step Turbo TMB ELISA solution (Pierce). Phage peptide sequences from specifically binding phage were aligned using Vector NTI (Life Technologies) against the antigen ECD peptide sequence to determine the epitope of binding.
Alternatively, a yeast display method (Chao et al., 2007, PMID: 17406305) was used to map the epitopes of selected antibodies. Libraries of DLL3 ECD mutants were generated with error prone PCR using nucleotide analogues 8-oxo-2′deoxyguanosine-5′-triphosphate and 2′-deoxy-p-nucleoside-5′triphosphate (TriLink Bio) for a target mutagenesis rate of one amino acid mutation per clone. These were transformed into a yeast display format. […]

B1: chimeric SC16.34 (antibody, human IgG1, kappa, V domains shown)
VH: QIQLVQSGPELKRPGETVKISCKASGYTFTNYGMNWVKQAPGKGLKWMGWINTYTGDPTYADDFKGRFAFSLETSASTAYLQINNLKNEDTATYFCARIGGNSPSDYWGQGTSLTVSS
VL: SIVMTQTPKFLLVSAGDRVTITCKASQSVSNDVAWYQQKPGQSPKLLIYYASNRYSGVPDRFTGSGYGTDFTFTISTVQAEDLAVYFCQQDYSSPWTFGGGTKLEIKR
notes: murine V regions on human IgG1/kappa; also called chimeric parent antibody of hSC16.34
Turning to B1, in the assay with human DLL3 [1], the binding result was “binds”.

B2: chimeric SC16.56 (antibody, human IgG1, kappa, V domains shown)
VH: QIQLVQSGPELKKPGETVKISCKASGYTFTNYGMNWVKQAPGKGLKWMAWINTYTGEPTYADDFKGRFAFSLETSASTASLQIINLKNEDTATYFCARIGDSSPSDYWGQGTTLTVSS
VL: SIVMTQTPKFLLVSAGDRVTITCKASQSVSNDVVWYQQKPGQSPKLLIYYASNRYTGVPDRFAGSGYGTDFSFTISTVQAEDLAVYFCQQDYTSPWTFGGGTKLEIRR
notes: murine V regions on human IgG1/kappa; also called chimeric parent antibody of hSC16.56
On to B2, for which the binding result with human DLL3 [1] is given as “binds”.

B3: hSC16.13 (antibody, human IgG1, kappa, V domains shown)
VH: QITLKESGPTLVKPTQTLTLTCTFSGFSLSTSGMGVGWIRQPPGKALEWLAHIWWDDVKRYSPSLKSRLTITKDTSKNQVVLTMTNMDPVDTATYYCARIVSFDNDVVSAMDYWGQGTLVTVSS
VL: DIQMTQSPSSLSASVGDRVTITCSASSSVSYMYWYQQKPGKAPKLLIYLTSNLASGVPSRFSGSGSGTDFTLTISSLQPEDFATYYCQQWRSNPFTFGQGTKLEIKR
notes: humanized IgG1/kappa; also called humanized SC16.13
For B3, the binding result in the assay with human DLL3 [1] is listed as “binds”.

B4: SC72.201 (antibody, V domains shown)
VH: EVNLEESGGGLVQPGGSMKLSCVASGFTFSNYWMNWVRQSPEKGLEWVAQIRSKSDNYATHYAESVKGRFTISRDDSKSSVYLQMNNLRSEDTGIYYCRTGPDVWGTGTTVTVSS
VL: DIQMTQSPASLSVSVGETVTITCRASENIYSSLAWYQQKQGNSPQLLVYAATKLADGVPSRFSGSGSGTQYSLKINSLQSEDFGSYYCQHFWGTTWTFGGGTKLEIK
notes: murine mAb
Take B4: the binding result with human ASCL1 is recorded as “binds”.

B5: hSC16.25 (antibody, human IgG1, kappa, V domains shown)
VH: QITLKESGPTLVKPTQTLTLTCTFSGFSLSTSGMGVGWIRQPPGKALEWLTDIWWDDNKYYNPSLKSRLTITKDTSKNQVVLTMTNMDPVDTATYYCARRVNYYYDPYYAMDYWGQGTLVTVSS
VL: EIVLTQSPDFQSVTPKEKVTITCSASSSVSYMHWYQQKPDQSPKLLIKDSSKLASGVPSRFSGSGSGTDFTLTINSLEAEDAATYYCQQWSSNPLTFGQGTKLEIKR
notes: humanized IgG1/kappa; also called humanized SC16.25
For the molecule B5, the binding result in the assay with human DLL3 [1] is given as “binds”.

B6: hSC16.34 (antibody, human IgG1, kappa, V domains shown)
VH: QVQLVQSGAEVKKPGASVKVSCKASGYTFTNYGMNWVRQAPGQRLEWMGWINTYTGDPTYADDFKGRVTITRDTSASTAYMELSSLRSEDTAVYYCARIGGNSPSDYWGQGTTVTVSS
VL: DIQMTQSPSSLSASVGDRVTITCKASQSVSNDVAWYQQKPGKVPKLLIYYASNRYSGVPSRFSGSGSGTDFTLTISSLQPEDVATYFCQQDYSSPWTFGGGTKVEIKR
notes: humanized IgG1/kappa; also called humanized SC16.34
B6: the binding result with human DLL3 [1] was “binds”.

B7: hSC16.56 (antibody, human IgG1, kappa, V domains shown)
VH: QVQLVQSGAEVKKPGASVKVSCKASGYTFTNYGMNWVRQAPGQGLEWMGWINTYTGEPTYADDFKGRVTMTTDTSTSTAYMELRSLRSDDTAVYYCARIGDSSPSDYWGQGTLVTVSS
VL: EIVMTQSPATLSVSPGERATLSCKASQSVSNDVVWYQQKPGQAPRLLIYYASNRYTGIPARFSGSGSGTEFTLTISSLQSEDFAVYYCQQDYTSPWTFGQGTKLEIKR
notes: humanized IgG1/kappa; also called humanized SC16.56
Consider B7, for which the binding result in the assay with human DLL3 [1] is given as “binds”.

B8: chimeric SC16.25 (antibody, human IgG1, kappa, V domains shown)
VH: QVTLKESGPGILQPSQTLSLTCSFSGFSLSTSGMGVGWIRQPSGEGLEWLTDIWWDDNKYYNPSLKSRLTISKDTSSNQVFLNITSVDTADTATYYCARRVNYYYDPYYAMDYWGQGTSVTVSS
VL: QIVLTQSPAIMSASPGEKVTMTCSASSSVSYMHWYQQKSGTSPKRWIYDSSKLASGVPARFSGSGSGTSYSLTISSMEAEDAATYYCQQWSSNPLTFGAGTKLELKR
notes: murine V regions on human IgG1/kappa; also called chimeric parent antibody of hSC16.25
With B8, the binding result in the assay with human DLL3 [1] is “binds”.

B9: SC72.181 (antibody, V domains shown)
VH: QVQLQQPGAEVVKPGASVRLSCKASGYTFTSYWINWVKQRPGQGLEWIGNIYPGSSSTNYNEKFKSKATLTVDTSSSTAYMQLSSLTSDDSAVYYCSRSESDYWGQGTTLTVSS
VL: DIVLTQSPASLAVSLGQRATISCKASQSVDDDGGTYMSWYQQKPGQPPKLLIYGVFILESGIPARFSGSGSGTDFTLNIHPVEEEDAATYYCQQSNEDPYTFGGGTKLEIK
notes: murine mAb
B9: the binding result with human ASCL1 was “binds”.

B10: SC72.216 (antibody, V domains shown)
VH: QIQLVQSGPELRKPGETVKISCKASGYTFTNYPMHWVKQAPGKGFKWMGWINTYSGVPSYADDFKGRFAFSLETSASSAYLQINNLKNEDMATYFCARHNYNSYDVFAYWGQGTLVTVSA
VL: DIVVTQSPASLAVSLGQRATISCKASQSVDYDGDSYMNWYQQKPGQPPKLLIYGASNLESGIPARFSGSGSGTDFTLNIHPVEEEDAATYYCQQSNEDPYTFGGGTKLEIK
notes: murine mAb
For the molecule B10, the binding result with human ASCL1 is listed as “binds”.

B11: chimeric SC16.15 (antibody, human IgG1, kappa, V domains shown)
VH: QVQLQQSGAELAKPGASVKMSCKASGYTFTRYWIHWIKQRPGQGLEWIGYINPTTVYTEFNQNFKDKATLTADKSSTTASMQLSSLTSEDSAVYYCARGGSNFFDYWGQGTTLTVSS
VL: DIQMTQSPASLAASVGETVAITCRASENIYYNLAWYQQKQGKSPQLLIYTANSLEDGVPSRFSGSGSGTQYSLKINSMQPEDSATYFCKQAYDVPPTFGGGTKLEIKR
notes: murine V regions on human IgG1/kappa; also called chimeric parent antibody of hSC16.15
As to B11, the binding result in the assay with human DLL3 [1] is given as “binds”.

B12: SC16.23 (antibody, V domains shown)
VH: QVTLKESGPGILQPSQTLSLTCSFSGFSLSTSNTGIGWIRQPSGTGLEWLAHIWWNDDKYYNPSLKSRLTISKETSNNQVFLKITNVDTADTASYFCVQIGRDYSNYAWYFDVWGAGTTVTVSS
VL: QIVLTQSPAIMSASPGEKVTLTCSASSSVSSRYLYWYQQKPGSSPKLWIYSTSNLASGVPARFSGSGSGTSYSLIISSMEAEDAASYFCHQWSNYPLTFGAGTKLELK
notes: murine mAb
As to B12, the binding result (in the assay with human DLL3 [2]; in assay [3]) was “binds” each time.

B13: hSC16.15 (antibody, human IgG1, kappa, V domains shown)
VH: QVQLVQSGAEVKKPGASVKVSCKASGYTFTRYWIHWIRQAPGQGLEWMGYINPTTVYTEFNQNFKDRVTMTRDTSTSTVYMELSSLRSEDTAVYYCARGGSNFFDYWGQGTTVTVSS
VL: AIQLTQSPSSLSASVGDRVTITCRASENIYYNLAWYQQKPGKAPKLLIYTANSLEDGVPSRFSGSGSGTDFTLTISSLQPEDFATYFCKQAYDVPPTFGGGTKLEIKR
notes: humanized IgG1/kappa; also called humanized SC16.15
Regarding B13, the binding result in the assay with human DLL3 [1] is listed as “binds”.

Source of the values: patent publication US20190201542A1 (AbbVie / Abbott, published 2019).
